Laboratory results as given in a protein production outcome set (Wang et al. 2014).

assay: label from the status in PepcDB records

Sequence | protein production
MNSFYSQEELKKIGFLSVGKNVLISKKASIYNPGVISVGNNVRIDDFCILSGKVTIGSYSHIAAYTALYGGEVGIEMYDFANISSRTIVYAAIDDFSGNALMGPTIPNQYKNVKTGKVILKKHVIIGAHSIIFPNVVIGEGVAVGAMSMVKESLDDWYIYVGVPVRKIKARKRKIVELENEFLKSMNSLEHHHHHH | failed
MNSKFKGIIFMILASAAFATMNLLSKLAVGVNSYQKTFLTNVVATLIVCFIIAYKKGSFFGKKESRKYLLVRGVTGTLSILTNYYALDKMFLSDATILTKLAPFFTIIFSYLLISEKITKKQFTLLIVAFAGSLFVIKPQFSTAIIPSLIGVASAAFAGIAYTMIRVIGDKEDFWTIILSFTSIATIVMLPSMFMNTDNLTLQNILLLVSAGIAFTLGQVALTIAYKNAPASEISMYDYIGLIIAAIYGFMFFKEIPDFLSFTGYIIIVGSSLLNILGNKKTSNKEINEDSSLVSTD | failed
MNSKNTICLWYDSAALEAATFYAETFPDSAVLAVHRAPGDYPSGKEGDVLTVEFRVMGIPCLGLNGGPAFRHSEAFSFQVATDDQAETDRLWNAIVDNGGEESACGWCRDKWGISWQITPRVLSEAIASPDRAAARRAFEAMMTMGRIDIATIEKAFKG | not failed
MNSLPIADLLASAVIAACIVISTMRGVIAEAGSMVAWVVSFFFAKLFAAPFADLAFASFQPRLFALALSFISLFVIACLIQKMLRSLLTGAVSAVGLGFANRILGGVFGALKGVLIVTLLIMLASKTDLPDTEEWQQSYTVPFFVSLSEAVLNHTDNAPESLDDD | failed
MNSPAHALTKPRRRTPRRAVRLARRALVGLTAAAILAGTGMGWVTYHGALDGITTSNALAGESGSVGDTENILIMGLDSRLDQHGNPLPEDVYQALHAGDETVGGYNANVLIVVHLPGDGGPATAFSIPRDDYVDLAGCPSGICKGKVKQAYGFAYQAEMEATESEEEDPATREQKAREAGRKAEIATVRNLLGIPIDHFVEVTLGAFFEIAKAVAPITVCLNDDTSDPYSGADFRKGVQQIDAAQAMAFVRQRRDINDENFTDLDRTRRQQAFLAALVSALRQSGALSSPSKLRGLLDVTKQNVALDAGFDLASFTKRASALTDAPPTLYTLPIKEFGQNAYGEDINIIDVPTIRKIVHDLVSKDDPATTTATPDKPELNGHGATLDVINGSTYTGLAAKLQTTFAADNFTEGQIGDAEALEPATTIDYGPGADAAAHSLATELGVTATPSDWVLADTVRLTIGTDFPGTDYLGADMFTSTTSGASESESYGPSETAELTPITTVAATATGTYTPAPTDLSQMTASGIPCVK | failed
MNSPETTWTEENSSCALHLHWYALCERKDLVANSGVVAWLDGKQLALFYLPDTAQGEQLFAIDNRDPKSGANVIGRGLTGQIAGELVIASPLYKQHFRLHDGSCIEYPEQRLEVWPVRLNGERVEIAV | failed
MNSPSHLEVREGADINLYNQILIPLYGADIRDSVVQYGLSLAETYDAALHVLYIQDEERTEVESDQVTKQEEWDAAAVIEPVVDQAHSLGLNVIPAVDSGHSPGVIREYAEENDIDLLVHQKPTQTRLARILRRDVSSHIIQNISLPVLTIPDMDPSDPVGELSTSQFTDILVPTDGYDEASVAFKHGLQIAKRYDATLHGLFIISEQSYSSRPGFTWEEVTDSWEQRGTRLLEDITEKAATLDVPVRTTLRFGQPQQEILKYTEVTDIDLVTMGTRGLTGIRRLLQGSVAAQVIEEADYPVLTINRRTAELKKHPYTFLRKTNQNRKSRLY | failed
MNSRAADQLELDGLPGTPPDFYRERQRSRVERYQSPAGAPLQCSVQVQTTQEHPLWTSHVWSGARALADTLCWQPELIAGKTVCELGAGAGLVSIVAFLAGADQVVATDYPDPEILNSLESNIREHTANSCSSETVKRASPKVVPYRWGDSPDSLQRCTGLQRFQVVLLADLLSFHQAHDALLRSVKMLLALPANDPTAVALVTFTHHRPHLAERDLAFFRLVNADGALIAEPWLSPLQMDPMFPDDPGDVCIRGQVHRWRLRWRSAASASANIPAHARNE | not failed
MNSSIVNAGIDPQVRESLKSFVGEAIDYANTSGKDAAIAKFNDQNGTFVRGNLYVYAFDYNGTTLALPYQPQLIGTDLSGLQDPYGVNYTKVEIFLEHHHHHH | failed
MNSTIIIVGILALVFIFLVFGVSSKPLRFIGKALFHVTLGVALLFIVNVVGTYFDFHLPINLGTATITSLLGLPGVAALVVIKLYIMPR | failed
MNTARANRENGAGNIYIGFGDSQLSLMDSHQARPEPVHTVCSKPPLKRPPSREEHLRQRLVKTIHSQRIISGKNRLSNPPRMANPQANSIIGISTYFGPTN | failed
MNTIDIAKSYITAIQTGDHATLGSIISPDVIWHQPGNHQFSGTHRGMAVVGPMLGKMMEVSNGTFAISRADDYMASGDWVAITLEFSGQANGVTLKQAGVDLLRIEDGKIVEVRLFSADQTQEDAFWGR | not failed
MNTIKLKKNALFNPEGDTDLRHRRMIGGNTTNLNDFNNMRYKWVSDWYRQAMNNFWIPEEINLTQDTKDYPHLDQAERTAYDKILSFLVFLDSLQSNNLPTISEYITANEVNLCLHIQAFQECVHSQSYSYMLDSICSPEKRNEILYQWKTDGHLLKRNTFIGNCYNEFQESQDGFTLMKTLIANYILEGIYFYSGFMFFYNLSRNGKMSGSAQEIRYINRDENTHLWLFRNIILELKKEEPDLFTPDKVKIYEYMMREGVKQEIEWGQYVIGDNIQGLNRKMIEDYIQYLGNLRWSSLGFGPLYEENHKEPESMHWVSQYSNANMVKTDFFEAKSTAYAKSTALEDDL | failed
MNTKPVLVILGPTASGKTELAFRIARQTGGEIISADSRQIYRGMDIGTAKPPRWMLDEVKHHFIDKKEIGEPFSAGDFAEQAAEKIRELHQRGITPVVAGGSTLYLEGLLKGFAELPPADPEIRAQLTRELERHGAEALYRRLEALDPEQAKTLDPTKTQRLIRSLEIIEISGTTVTALQSKTPGPPTGINFTVIGLDLPRELLYERINQRTSAMIQAGLEAEARYLFDKFRDEWRSKNLNALATVGYRELFEHFEELHDLDTAVSLIAQHTRNYAKRQLTFFRNRLDVEWVKAPLDEAEIEALVEFFSTRQDDSVPHSPIAIAKKQNA | failed
MNTMEKKTNIHAEDGKQDLLISREFDLPVELLFKAYTEPEFVEQWMGTTVLKLENKKHGSYQFETTDPKGNKHGFNGTIHEFVPDKKITRTFEMDNTPFPIQLEFLVFEKTTETTSKLNMHVIYKSVTDRDNILKLPFAQGINMAHNRIQELPTKLK | failed
MNTMLNPHYQQIWQTVQLIPQGKVACYGQIADLAGLPGRARLVGKSLGKVPKDGWRGQRVPWFRVINSQGKISFPPGSENFDKQKHHLQDEQVVVIGSRIKLKEFQWKPDLSELLFSLEFLEHHHHHH | failed
MNTMVELRKLIVFLLSFTFLLYLLYVGINISKKLRIRRSPFFLMISGVGLITLGTFLDAIDKFIDVGIKNVIAACFTFGAILFVVFIIFLSNNFVCTVSLLYEDANMDKMTGAYNRKGINEIFQRSIAKQNSFYLMLFDLDETKRLNDKYGHAVGDKYIIGASAIIKDTIGNKGFVGRIGGDEFIALLKLENEVDVEKIKKLIKDQFCESFKQYGANISIGYSRFKEDGQEFEEIFQIADKNMYDDKKSNKKNKACF | failed
MNTPSRTHLVIIPSYNPGPKVYETVQAARRYWNPVWVVVDGSTDGTWEGLLKLSAEDSGLVVLGMPANRGKGAAVLRGLLTSRRKGFTHALVMDSDGQHPADRIPEFMARSQEEPDAMILGVPVFDDSAPSLRVKGRRISNWWANLETLWCGIGDSLFGFGVYPIQALCVIMQDHQWMRRFDFDPEAAVRLCWAGIRPVNLPVPVYYPKPEEGGTSHFHYWRDNALLTWMHVRLMFGFLARLPILLARIVRRPEILEHHHHHH | failed
MNTSDRIKSTQIALDRDLREQALLLLKEVRAVDGVDALSEQFVRGLAEPGLGHSHLIVTLNDKLVGLAATDEETTELAVHPAHRRQGIGKALIDAT | failed
MNTSHSSPSNTLLWQSLGLGLLALLLFCAGADHQSAIGFDSRFVLFAKEMLRHGPGFFPTTYGQPYADYSSASTLLVWLFSLPGGQVTSLTAWLPTAIASALIVSLIYRLLAPYSRTWALLSVALLLLSNTFISETRAVSLDQMLAAVSLAVFYLGYAHDHFGTRRRLGWIFLLLVLGFAIRGPIGLVIPTGMLCSYYLLNGQWRRLFSVGFSALALLVACVGLLLWLAKLSGGQAFVDDVIRMQFMGRMDGSEGSSDVFYYFTSSLGNYALAYPLAILAWLAVLLTRATEQGPGLKLLRLCTAAGLIVMIGLSIPQAKKARYLLPMLPMAAIIAAYPFQAGRGRLLAWLRGAIQGLWLLLPGLLIIGLLVLRRKFPEQLDSLTPMLLVLGLLQLLSLGLLFKRQWRAVGLAYSAVLAVWACYIGVFEPVEHRLYDTRTFSHSAMQLIEADPAPVVLHRMGKDAKAIKFMVNLDRDLQPQFTESPDALAQVPGPAWVILDQSDLASLQNTPLADLKPVLSGRFDKNDFVLLHLTGPTAAQP | failed
MNTVFFYLQVSIKNLHDSIKNLRVSIKNLYVSIKGAGITAFLQTVKYERFEEKILMDFISNLFGRDKNQSFLEASKQGQTENVEKLLRSNKVDVNYQDAYGKTALISAADKGYRDVIGLLIESGPNLDLQDENGNTALISAAKIERGDIIDLLVKNGADLNFQDENGETALKFAVKVGYKNIADQLIDAGTDLNIQDENGETALICAADRAHRDIAELLIKAGADLNIQDNSGKTALVAATKIGHKGIVELLVNAGADLNLQDKNGNTALIYAADRGYRDIVNLLIEGGASLNIPDEAGLTALMFSAQTGRKDIVELLIKAGADINIEDKNNKTAADLAAEVGFEEIVDLLTSVRTYSSS | failed
MNVAEEMLSGEETLAVGERFKTFLENFRTEEGKLKYVEAIRRMINYEETSLEVEFKDLYRYDPLLSEILLEKPREFLKEASEALKEIVAQESPEYAQGRVFTPRFTGLFDTERIRDIGSDHVGKLVQINGIVTRMHPRATRMVRARFRHDRCGAEFWWPANEDEVLGERIERPSICPVCGEGGGKFTLVRDKSLYIDWQKIMVQERPEDVPGGQIPRSIEVHLSRDLVEKVRPGDRVKIVGVVGLQSFSSSSTLYSLYMEANSILLEEKILEEVSITREDEEKILQLSRDPWIKEKIIASIAPTIYGHWDLKEAIALLLFGGVPKQRPDGTRTRGDIHVLFVGDPGVAKSQLLQSTAQVAPRVVYTTGKGSTAAGLTAAVLRDPRTGEYFLEAGALVLADGGIAVIDEFDKMSKEDRGVIHEAMEQQTVSIAKAGIKATLSARASLLAAGNPKFGYYDPSRSFVDNVDLPAPIISRFDLIFVVRDVIERSRDEMLASYVLETHTNVELFKPEIDPDLLRKYIAFARKHVKPRLTPQAKKLLKDFYVEMRSSALHHSSQEGAKPVPITTRQLEALIRLTEAHARMSLKQEATEEDAIAAIRIMTSVLQSIGLDLETGEIDIGIIMTGASFRSRKIMSEVLDLIKSIVEEERGGQGCVRASEIVRRLGEKNIPEEKVRDAIDKLYRQGLIIEIRTECYKAV | failed
MNVDARVGVAVDGAQSALNTATTVHSSVVMTQIKPQAKLGTFQNLLAGGIAGAISKTCTAPLARLTILFQLQGMQSEGAVLSRPNLRREASRIINEEGYRAFWKGNLVTVVHRIPYTAVNFYAYEKYNLFFNSNPVVQSFIGNTSGNPIVHFVSGGLAGITAATATYPLDLVRTRLAAQRNAIYYQGIEHTFRTICREEGILGLYKGLGATLLGVGPSLAINFAAYESMKLFWHSHRPNDSDLVVSLVSGGLAGAVSSTDDKLFDAHNYVATYPLDLVRRRMQVEGAGGRARVYNTGLFGTFKHIFKSEGFKGIYRGILPEYYKVVPGVGIVFMTYDALRRLLTSLPD | failed
MNVELFKKFSEKVEEIIEAGRILHSRGWVPATSGNISAKVSEEYIAITASGKHKGKLTPEDILLIDYEGRPVGGGKPSAETLLHTTVYKLFPEVNAVVHTHSPNATVISIVEKKDFVELEDYELLKAFPDIHTHEVKIKIPIFPNEQNIPLLAKEVENYFKTSEDKYGFLIRGHGLYTWGRSMEEALIHTEALEFIFECELKLLSFHS | not failed
